Drawing on PMC4428439, this text covers ratio to parent for two variants.

B1: RssB, full-length, untagged, overexpressed in lysate [E. coli] / His6-IraP [E. coli] (parent)
chain 1: MTQPLVGKQILIVEDEQVFRSLLDSWFSSLGATTVLAADGVDALELLGGFTPDLMICDIAMPRMNGLKLLEHIRNRGDQTPVLVISATENMADIAKALRLGVEDVLLKPVKDLNRLREMVFACLYPSMFNSRVEEEERLFRDWDAMVDNPAAAAKLLQELQPPVQQVISHCRVNYRQLVAADKPGLVLDIAALSENDLAFYCLDVTRAGHNGVLAALLLRALFNGLLQEQLAHQNQRLPELGALLKQVNHLLRQANLPGQFPLLVGYYHRELKNLILVSAGLNATLNTGEHQVQISNGVPLGTLGNAYLNQLSQRCDAWQCQIWGTGGRLRLMLSAE
chain 2: MKNLIAELLFKLAQKEEESKELCAQVEALEIIVTAMLRNMAQNDQQRLIDQVEGALYEVKPDASIPDDDTELLRDYVKKLLKHPRQ

The variants in the assay derive from B1. Put plainly: pull-down. Conditions: with His6-IraP [E. coli]; lysate of cells co-expressing RssB and His6-IraP applied to Ni-NTA beads; eluted with imidazole; n = 3; parent: 1; read off a plot.
Consider chain 1 MTQPLVGKQILIVEDEQVFRSLLDSWFSSLGATTVLAADGVDALELLGGFTPDLMICPIAMPRMNGLKLLEHIRNRGDQTPVLVISATENMADIAKALRLGVEDVLLKPVKDLNRLREMVFACLYPSMFNSRVEEEERLFRDWDAMVDNPAAAAKLLQELQPPVQQVISHCRVNYRQLVAADKPGLVLDIAALSENDLAFYCLDVTRAGHNGVLAALLLRALFNGLLQEQLAHQNQRLPELGALLKQVNHLLRQANLPGQFPLLVGYYHRELKNLILVSAGLNATLNTGEHQVQISNGVPLGTLGNAYLNQLSQRCDAWQCQIWGTGGRLRLMLSAE [chain 1 D58P], for which the ratio to parent was 0.36.

For the variant chain 1 MTQPLVGKQILIVEDEQVFRSLLDSWFSSLGATTVLAADGVDALELLGGFTPDLMICAIAMPRMNGLKLLEHIRNRGDQTPVLVISATENMADIAKALRLGVEDVLLKPVKDLNRLREMVFACLYPSMFNSRVEEEERLFRDWDAMVDNPAAAAKLLQELQPPVQQVISHCRVNYRQLVAADKPGLVLDIAALSENDLAFYCLDVTRAGHNGVLAALLLRALFNGLLQEQLAHQNQRLPELGALLKQVNHLLRQANLPGQFPLLVGYYHRELKNLILVSAGLNATLNTGEHQVQISNGVPLGTLGNAYLNQLSQRCDAWQCQIWGTGGRLRLMLSAE [chain 1 D58A], the ratio to parent worked out at 0.6.
